Laboratory results: paper doi:10.1101/2022.02.05.479199

Experiments:
hRPA = hRPA (human, UniProt P27694;P15927;P35244 1-616;1-270;1-121); assay: EMSA
hRPA;RPAIN = hRPA;RPAIN (human;human, UniProt P27694;P15927;P35244;Q86UA6 1-616;1-270;1-121;1-219, |); assay: EMSA
hRPA;RPAIN, sequence (P27694 whole entry, chain 1 of 4): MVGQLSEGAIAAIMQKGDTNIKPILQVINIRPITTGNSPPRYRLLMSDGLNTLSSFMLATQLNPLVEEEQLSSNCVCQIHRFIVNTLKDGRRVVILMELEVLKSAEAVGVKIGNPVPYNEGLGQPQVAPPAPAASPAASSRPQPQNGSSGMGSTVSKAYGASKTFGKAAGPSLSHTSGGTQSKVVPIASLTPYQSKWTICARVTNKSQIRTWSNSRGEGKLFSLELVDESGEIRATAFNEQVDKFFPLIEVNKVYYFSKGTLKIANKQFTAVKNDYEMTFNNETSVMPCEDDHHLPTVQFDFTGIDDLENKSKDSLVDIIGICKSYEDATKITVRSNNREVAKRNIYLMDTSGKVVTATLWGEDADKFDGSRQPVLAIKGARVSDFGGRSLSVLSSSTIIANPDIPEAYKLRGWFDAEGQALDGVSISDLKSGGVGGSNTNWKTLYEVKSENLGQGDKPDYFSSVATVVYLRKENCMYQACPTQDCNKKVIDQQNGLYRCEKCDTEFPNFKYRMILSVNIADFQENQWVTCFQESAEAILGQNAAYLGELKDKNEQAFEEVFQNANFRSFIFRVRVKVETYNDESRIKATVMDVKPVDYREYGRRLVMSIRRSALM
hRPA;RPAIN, sequence (P15927 whole entry, chain 2 of 4): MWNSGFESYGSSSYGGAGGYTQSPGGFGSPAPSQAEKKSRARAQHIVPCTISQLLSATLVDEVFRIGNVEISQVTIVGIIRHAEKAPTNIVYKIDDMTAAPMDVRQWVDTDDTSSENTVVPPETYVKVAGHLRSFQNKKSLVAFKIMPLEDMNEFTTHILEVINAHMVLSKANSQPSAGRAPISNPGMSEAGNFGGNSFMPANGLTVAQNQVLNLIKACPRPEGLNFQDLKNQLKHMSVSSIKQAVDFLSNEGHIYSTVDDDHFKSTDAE
hRPA;RPAIN, sequence (P35244 whole entry, chain 3 of 4): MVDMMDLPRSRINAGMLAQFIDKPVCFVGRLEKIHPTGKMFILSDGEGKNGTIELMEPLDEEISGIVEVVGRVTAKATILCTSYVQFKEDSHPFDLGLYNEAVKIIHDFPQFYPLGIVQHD
hRPA;RPAIN, sequence (Q86UA6 whole entry, chain 4 of 4): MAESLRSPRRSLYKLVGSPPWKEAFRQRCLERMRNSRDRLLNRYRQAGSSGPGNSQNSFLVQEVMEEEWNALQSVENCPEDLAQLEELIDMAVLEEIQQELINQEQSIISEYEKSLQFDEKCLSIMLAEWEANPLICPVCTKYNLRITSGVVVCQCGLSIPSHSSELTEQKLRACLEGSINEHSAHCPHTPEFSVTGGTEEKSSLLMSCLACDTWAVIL

hRPA, sequence (P27694 whole entry, chain 1 of 3): as the sequence (P27694 whole entry, chain 1 of 4) above
hRPA, sequence (P15927 whole entry, chain 2 of 3): as the sequence (P15927 whole entry, chain 2 of 4) above
hRPA, sequence (P35244 whole entry, chain 3 of 3): as the sequence (P35244 whole entry, chain 3 of 4) above

B1: 5'-Cy5-(dT)30 (ssDNA)
DNA: TTTTTTTTTTTTTTTTTTTTTTTTTTTTTT
Kd (hRPA): 10.5 nM
Kd (hRPA;RPAIN): 11.8 nM
